Literature values as cited in article PMC8020814.

Molecular target: C3b C3b (Homo sapiens) (UniProt P01024)
UniProt P01024, sequence (P01024 566-670): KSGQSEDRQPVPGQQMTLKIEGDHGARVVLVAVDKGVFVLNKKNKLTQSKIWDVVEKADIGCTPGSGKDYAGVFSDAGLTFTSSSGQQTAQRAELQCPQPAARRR

## Factor H FH(1-4) (from UniProt P08603)
  Kd: 11 µM
